Measured values as given in the supplement of paper PMC10126150.
± gives the standard deviation of the averaged measurements.

Test system: ATP
Test: switch fluorescence ratio, 500 uM ATP over buffer (Cy3 cluster intensity, sum of 5 cycles each) (fold (ratio)); higher = stronger signal-on switching upon ATP binding; sequences stand for … in TCGTCGGCAGCGTCAGATGTGTATAAGAGACAGTTTTTTTTTTTTTTTTTTTTTTTTT…TC
Details: aptamer strand: ATP DNA aptamer (quencher-CACCTGGGGGAGTATTGCGGAGGAAGG + anchor), 100 nM annealed; ATP concentration: 500 uM
Procedure, shortened: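 Cy3-labelled switching-strand clusters on a modified Illumina MiSeq flow-cell were annealed to 100 nM quencher-labelled ATP aptamer, imaged in selection buffer, then imaged after 15 min with 500 uM ATP at 22 °C. Five buffer/ATP cycles ran, with NaOH stripping and re-annealing between them. The fluorescence ratio is summed target-cycle over summed buffer-cycle Cy3 intensity per cluster, averaged per switch-domain sequence. Clusters outside 100-1000 RFU were excluded.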
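Also: ATP exposure 15 min at 22 °C before imaging.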

Sequence	switch fluorescence ratio
CGGCCCAGAA	1 ± 0.015
CGGCCGTATA	0.998 ± 0.013
CGGCCTAAGG	1.01 ± 0.016
CGGCGAGAAC	1.045 ± 0.0023
CGGCGCGGAT	1.02 ± 0.04
CGGCGGCACC	1.0893 ± 0.00071
CGGCGGCAG	1.03 ± 0.064
CGGCGGGAAG	1 ± 0.023
CGGCGGGAGC	1.05 ± 0.038
CGGCGGGCTG	0.989 ± 0.062
CGGCGGGGTG	1.04 ± 0.055
CGGCGGGTCT	0.98 ± 0.052
CGGCGGGTGG	1.02 ± 0.041
CGGCGTAGGG	1.12 ± 0.15
CGGCGTTATG	0.988 ± 0.014
CGGCTAAGGG	0.981 ± 0.014
CGGCTACTTT	1.03 ± 0.038
CGGCTATGTG	0.985 ± 0.027
CGGCTATTAA	1.044 ± 0.0086
CGGCTGCGTG	0.998 ± 0.0073
CGGCTGGCGA	1.01 ± 0.059
CGGCTGGCTG	1.04 ± 0.011
CGGCTGGTCA	0.984 ± 0.021
CGGCTGTCAC	1.03 ± 0.025
CGGCTGTGGT	1.01 ± 0.03

Sequence	switch fluorescence ratio
CGGCTTGGT	1.02 ± 0.015
CGGCTTGTG	0.99726 ± 0.00036
CGGGAAAACG	0.995 ± 0.012
CGGGAAATGG	1.007 ± 0.0064
CGGGAACGGA	0.984 ± 0.033
CGGGAACGGT	1.01 ± 0.026
CGGGAACTTT	1.02 ± 0.065
CGGGAAGCTT	1 ± 0.082
CGGGAAGGGC	1.19 ± 0.32
CGGGAAGTTC	1.03 ± 0.016
CGGGAATCGT	1 ± 0.05
CGGGAATGGC	1.06 ± 0.079
CGGGAATTTT	1 ± 0.013
CGGGACATAG	0.964 ± 0.026
CGGGACCGGA	1.02 ± 0.073
CGGGACCTGG	0.958 ± 0.077
CGGGACGGAG	0.997 ± 0.11
CGGGAGAAAG	1 ± 0.022
CGGGAGATTA	0.9872 ± 0.0084
CGGGAGGGAC	0.994 ± 0.057
CGGGAGGGAG	1 ± 0.05
CGGGAGGTAT	1 ± 0.012
CGGGATCTGT	1.01 ± 0.024
CGGGATGTCA	0.955 ± 0.038
CGGGCAACGT	1.02 ± 0.037

Sequence	switch fluorescence ratio
CGGGCAAGGT	1.038 ± 0.01
CGGGCATTGT	1.01 ± 0.051
CGGGCCTTTT	1 ± 0.023
CGGGCGAGGA	0.989 ± 0.029
CGGGCGCAGT	1.02 ± 0.043
CGGGCGGGAC	1.59 ± 0.021
CGGGCGGGGG	1.06 ± 0.12
CGGGCTCAGC	1.008 ± 0.0094
CGGGCTTATT	0.988 ± 0.02
CGGGCTTTTT	1.016 ± 0.0065
CGGGGAAATG	0.997 ± 0.023
CGGGGAAGTT	0.9847 ± 0.0079
CGGGGACGAC	1.63 ± 0.72
CGGGGACTGG	0.9726 ± 0.0072
CGGGGAGGTG	1.1 ± 0.087
CGGGGAGTCG	0.945 ± 0.023
CGGGGATGGC	0.979 ± 0.011
CGGGGATGGG	0.992 ± 0.022
CGGGGATTAG	0.994 ± 0.017
CGGGGATTGC	1.01 ± 0.016
CGGGGCCTTT	1.02 ± 0.037
CGGGGCGGAT	1.04 ± 0.016
CGGGGCTTAT	0.9909 ± 0.0014
CGGGGGAAGC	1.02 ± 0.041
CGGGGGACGG	0.982 ± 0.029

Sequence	switch fluorescence ratio
CGGGGGAGAC	0.971 ± 0.019
CGGGGGAGCT	1.02 ± 0.029
CGGGGGATGC	1.05 ± 0.036
CGGGGGATTA	1.02 ± 0.049
CGGGGGCAGA	1 ± 0.023
CGGGGGCCCT	1.01 ± 0.034
CGGGGGCGCT	1.02 ± 0.013
CGGGGGCTGC	1.13 ± 0.1
CGGGGGGAGC	1.01 ± 0.056
CGGGGGGATG	1.01 ± 0.033
CGGGGGGATT	0.997 ± 0.012
CGGGGGGCAT	0.994 ± 0.022
CGGGGGGCCT	1.01 ± 0.028
CGGGGGGGAA	0.999 ± 0.03
CGGGGGGGG	1 ± 0.059
CGGGGGGTCA	1.01 ± 0.018
CGGGGGGTGC	1.01 ± 0.082
CGGGGGTGTT	0.998 ± 0.023
CGGGGGTTAC	1.4 ± 0.56
CGGGGTACGG	1.01 ± 0.017
CGGGGTATTG	0.999 ± 0.039
CGGGGTCGG	1 ± 0.014
CGGGGTCTGG	0.978 ± 0.015
CGGGGTGGGT	0.978 ± 0.028
CGGGGTGGTG	1.04 ± 0.067

Sequence	switch fluorescence ratio
CGGGGTGTT	0.994 ± 0.017
CGGGGTTAGC	1.01 ± 0.014
CGGGTAACTT	1.02 ± 0.046
CGGGTAGCTT	1.017 ± 0.0093
CGGGTAGGGT	0.998 ± 0.039
CGGGTATATT	1.01 ± 0.032
CGGGTCATTT	0.9691 ± 0.0035
CGGGTCGAGC	1 ± 0.03
CGGGTCGCGG	0.992 ± 0.031
CGGGTCGGCG	1.01 ± 0.049
CGGGTCTAGC	1.01 ± 0.021
CGGGTGCGTG	0.981 ± 0.017
CGGGTGGCTG	0.995 ± 0.035
CGGGTTAGTC	1.07 ± 0.027
CGGGTTCTCG	0.978 ± 0.025
CGGGTTGAG	0.9967 ± 0.0066
CGGGTTGCAG	0.97 ± 0.019
CGGGTTTAAG	0.9933 ± 0.0026
CGGGTTTGGA	0.998 ± 0.035
CGGGTTTGTT	0.997 ± 0.02
CGGTACTTAT	0.983 ± 0.017
CGGTAGAGGG	0.982 ± 0.037
CGGTAGAGGT	1.01 ± 0.016
CGGTAGGAAT	1.018 ± 0.0077
CGGTAGTCGG	1.03 ± 0.027

Sequence	switch fluorescence ratio
CGGTAGTTGT	0.981 ± 0.014
CGGTATAATT	0.999 ± 0.042
CGGTATATTT	0.9712 ± 0.0058
CGGTATGAGG	0.9 ± 0.11
CGGTCAATTG	1 ± 0.036
CGGTCGACGA	1.01 ± 0.024
CGGTCTGAGG	1.017 ± 0.002
CGGTGAAGGG	0.994 ± 0.027
CGGTGACTGC	1.02 ± 0.099
CGGTGAGTAG	0.9876 ± 0.0092
CGGTGCCAAG	0.988 ± 0.042
CGGTGCTTGT	1.02 ± 0.037
CGGTGGACTA	1.008 ± 0.01
CGGTGGAGCT	1.01 ± 0.052
CGGTGGCATA	1.04 ± 0.018
CGGTGGCCGT	1.02 ± 0.019
CGGTGGCGTA	0.9975 ± 0.0035
CGGTGGCTGC	0.967 ± 0.011
CGGTGGGATT	0.979 ± 0.019
CGGTGGGTAA	1.01 ± 0.026
CGGTGGGTC	1.009 ± 0.0047
CGGTGGTCAG	1.01 ± 0.0076
CGGTGTATTT	0.9547 ± 0.0037
CGGTGTGTAG	0.983 ± 0.062
CGGTGTGTCC	0.97164 ± 0.00017

Sequence	switch fluorescence ratio
CGGTTAAGGC	1.07 ± 0.017
CGGTTACGGA	0.977 ± 0.035
CGGTTAGGTG	1.06 ± 0.021
CGGTTATAGG	0.967 ± 0.012
CGGTTATGGC	0.978 ± 0.019
CGGTTCCCTA	0.978 ± 0.033
CGGTTCGAGT	1.01 ± 0.035
CGGTTGAATG	0.98841 ± 0.00073
CGGTTGATCT	1.09 ± 0.13
CGGTTGGCAA	1.09 ± 0.054
CGGTTGGCCA	1 ± 0.018
CGGTTGGGTC	1.05 ± 0.051
CGGTTGGTGG	1.01 ± 0.014
CGGTTTAAGC	0.994 ± 0.046
CGGTTTAATA	1.03 ± 0.07
CGGTTTACGT	0.997 ± 0.018
CGGTTTAGGT	0.951 ± 0.017
CGGTTTGATT	1.04 ± 0.073
CGGTTTGCAG	0.972 ± 0.043
CGGTTTGGAG	0.995 ± 0.056
CGGTTTTACT	1.04 ± 0.021
CGGTTTTCTT	0.995 ± 0.012
CGGTTTTTAT	0.983 ± 0.018
CGGTTTTTGT	0.9992 ± 0.008
CGTAAAGGGA	0.987 ± 0.013

Sequence	switch fluorescence ratio
CGTAACTTAC	1.6 ± 0.097
CGTAAGACGT	1.03 ± 0.044
CGTAATTGTA	1.01 ± 0.018
CGTAATTTTC	1.09 ± 0.083
CGTACAAGTC	0.963 ± 0.058
CGTACAGCAG	1.01 ± 0.054
CGTACCAGGG	1.32 ± 0.036
CGTACCATCC	1.6 ± 0.18
CGTACCGGTC	1.04 ± 0.079
CGTACGCCGG	0.993 ± 0.021
CGTACTTGTT	1.01 ± 0.035
CGTAGACGAA	0.974 ± 0.0094
CGTAGACTGC	1.06 ± 0.024
CGTAGGAAAA	0.98 ± 0.096
CGTAGGATTT	0.9554 ± 0.0048
CGTAGGGAAT	1.014 ± 0.0064
CGTAGGGGGA	0.984 ± 0.015
CGTAGGGGTT	0.989 ± 0.028
CGTAGTAGAC	2.61 ± 0.26
CGTAGTAGGA	1.04 ± 0.084
CGTAGTGCCC	1.07 ± 0.048
CGTAGTTTGC	1.52 ± 0.098
CGTATAATGT	0.996 ± 0.015
CGTATAGAGA	0.998 ± 0.039
CGTATAGTAG	0.958 ± 0.02
